Reference: patent US20240199756A1 (CYTOVIA THERAPEUTICS, published 2024)
One block for each binder: values may come before it.

Assays:
human CD38 protein = target: T1, human CD38 protein (human, UniProt P28907 43-300); experiment: ELISA, plate coated with human CD38 protein, absorbance at 650 nm
T1 sequence (looked up): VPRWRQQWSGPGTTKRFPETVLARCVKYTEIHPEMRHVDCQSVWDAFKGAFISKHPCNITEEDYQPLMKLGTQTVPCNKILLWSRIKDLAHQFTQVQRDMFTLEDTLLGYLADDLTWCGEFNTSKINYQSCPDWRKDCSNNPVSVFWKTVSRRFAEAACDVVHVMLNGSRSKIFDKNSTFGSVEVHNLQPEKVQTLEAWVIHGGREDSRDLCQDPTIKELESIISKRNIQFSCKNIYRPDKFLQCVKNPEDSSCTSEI
Protocol: Binding of the humanized antibody to human CD38 was tested. The ELISA plate was coated with 0.1 mg/well of human CD38 protein. 1t antibody (humanized anti-aNKp46 antibody or humanized anti-CD38 antibody) was added at 0.1 mg/well. Secondary antibody was diluted 1:7500. After addition of Streptavidin-HRP and TMB substrate the optical absorbance was measured at 650 nm.

[1] = target: T2, human CD38 expressed on multiple myeloma cells (KMS11, MM1.S) (human, UniProt P28907 1-300); experiment: flow cytometry on KMS11 wt cells
T2 construct: whole, on cells; Naturally expressed on KMS11 and MM1.S cell lines; a CD38 knock out MM.1S line served as negative control
T2 sequence (looked up): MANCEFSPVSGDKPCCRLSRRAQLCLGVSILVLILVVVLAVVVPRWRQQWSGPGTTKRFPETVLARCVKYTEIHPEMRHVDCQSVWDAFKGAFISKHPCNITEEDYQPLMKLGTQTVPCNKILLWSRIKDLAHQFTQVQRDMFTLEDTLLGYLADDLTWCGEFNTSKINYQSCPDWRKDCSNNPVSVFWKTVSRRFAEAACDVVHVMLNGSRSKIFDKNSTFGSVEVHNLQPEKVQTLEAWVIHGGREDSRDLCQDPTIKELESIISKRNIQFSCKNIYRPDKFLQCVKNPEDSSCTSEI

[2] = target: T2, human CD38 expressed on multiple …; experiment: flow cytometry on MM.1S wt cells

binding result (human CD38 protein): binds
B1: humanized anti-CD38 antibody (antibody, V domains shown)
VH: QVQLVQSGAEVKKPGASVKVSCKASGYTFTSYWMQWVRQAPGQGLEWMGAIYPGDGDTRYTQKFKGRVTMTRDTSTSTVYMELSSLRSEDTAVYYCARERTTGAPRYFDVWGQGTLVTVSS
VL: DIQMTQSPSSLSASVGDRVTITCRASENIYSFLAWYQQKPGKAPKLLIYNTKTLTEGVPSRFSGSGSGTDFTLTISSLQPEDFATYYCQHHYGIPLTFGGGTKVEIK
notes: also called CD38-IgG1 L234A, L235A; CD38-IgG1 wildtype

EC50 (read off the curve) [1]: ~0.2 µg/mL
EC50 (read off the curve) [2]: ~0.3 µg/mL
B2: NKE2 with wild type (WT) Fc (bispecific antibody, human IgG1, kappa)
heavy: not shown
light 1: DIVMTQSPATLSLSPGERATLSCRASQSISDYLHWFQQKPHESPRLLIKYASQSISGIPARFSGSGSGSDFTLTISSLEPEDFAVYYCQNGHSFPLTFGPGTKVDIKRTVAAPAVFIFPPSDEQLKSGTASVVCLLKNFYPREAKVQWKVDNALQSGNSQESVTEQDSKDSTYSLSSTLTLSKADYEKHKVYACEVTHQGLSSPVTKSFNRGEC
light 2: DIQMTQSPSSLSASVGDRVTITCRASENIYSFLAWYQQKPGKAPKLLIYNTKTLTEGVPSRFSGSGSGTDFTLTISSLQPEDFATYYCQHHYGIPLTFGGGTKVEIKRTVAAPSVFIFPPSDEQLKSGTASVVCLLNNFYPREAKVQWKVDNALQSGNSQESVTEQDSKDSTYSLSSTLTLSKADYEKHKVYACEVTHQGLSSPVTKSFNRGEC
notes: Tetravalent IgG1-like tandem-Fab molecule: anti-CD38 Fab, linker, humanized 09 anti-NKp46 Fab, hinge, IgG1 Fc; also called NKE2 WT; NKE2 WT-Fc

EC50 (read off the curve) [1]: ~0.2 µg/mL
EC50 (read off the curve) [2]: ~0.3 µg/mL
B3: NKE2 with mutant null Fc (bispecific antibody, human IgG1, kappa, L234A L235A)
heavy: not shown
light 1: B2 light 1
light 2: B2 light 2
notes: As NKE2 WT but with IgG1 L234A/L235A Fc; also called NKE2 Mut Fc (Fc silent); NKE2 MUT
